This data set in a line: label from the status in PepcDB records.
As for “METYDVLVVGGGPGGSTAARYAAKYGLKTLMIEKRPEIGSPVRCGEGLSKGILNEADIKADRSFIANEVKGARIYGPSEKRPIILQSEKAGNEVGYVLERDKFDKHLAALAAKAGADVWVKSPALGVIKENGKVAGAKIRHNNEIVDVRAKMVIAADGFESEFGRWAGLKSVILARNDIISALQYRMINVDVDPDYTDFYLGSIAPAGYIWVFPKGEGMANVGIGSSINWIHNRFELKNYLDRFIENHPGLKKGQDIQLVTGGVSVSKVKMPITMPGLMLVGDAARLIDPITGGGIANAIVSGMYAAQVTKEAIESNDYSPQMMQKYEKLIKERFERKHLRNWVAKEKLAMLSDDTLDKLVDIVSEQVLTTISVEAILKAIAEKYPEVVKELEDLI”, the protein production entry is “not failed”.
Take “METYPITVGGVTRHVPLIEPLPGRRIPLVEFLGDPEFTRAAAEALRPLVPKEAEILFTTETSPIPLTHVLAEALGLPYVVARRRRRPYMEDPIIQEVQTLTLGVGEVLWLDRRFAEKLLNQRVVLVSDVVASGETMRAMEKMVLRAGGHVVARLAVFRQGTPGLAVDTVAELPVL”: the protein production entry is “not failed”.
With “MEVARGLEGVLFTESRMCYIDGQQGKLYYYGIPIQELAEKSSFEETTFLLLHGRLPRRQELEEFSAALARRRALPAHLLESFKRYPVSAHPMSFLRTAVSEFGMLDPTEGDISREALYEKGLDLIAKFATIVAANKRLKEGKEPIPPREDLSHAANFLYMANGVEPSPEQARLMDAALILHAEHGFNASTFTAIAAFSTETDLYSAITAAVASLKGPRHGGANEAVMRMIQEIGTPERAREWVREKLAKKERIMGMGHRVYKAFDPRAGVLEKLARLVAEKHGHSKEYQILKIVEEEAGKVLNPRGIYPNVDFYSGVVYSDLGFSLEFFTPIFAVARISGWVGHILEYQELDNRLLRPGAKYVGELDVPYVPLEARE” the entry was “not failed”; with “MEVAVEKAVAAAAAASAAASGGPSAAPSGENEAESRQGPDSERGGEAARLNLLDTCAVCHQNIQSRAPKLLPCLHSFCQRCLPAPQRYLMLPAPMLGSAETPPPVPAPGSPVSGSSPFATQVGVIRCPVCSQECAERHIIDNFFVKDTTEVPSSTVEKSNQVCTSCEDNAEANGFCVECVEWLCKTCIRAHQRVKFTKDHTVRQKEEVSPEAVGVTSQRPVFCPFHKKEQLKLYCETCDKLTCRDCQLLEHKEHRYQFIEEAFQNQKVIIDTLITKLMEKTKYIKFTGNQIQNRIIEVNQNQKQVEQDIKVAIFTLMVEINKKGKALLHQLESLAKDHRMKLMQQQQEVAGLSKQLEHVMHFSKWAVSSGSSTALLYSKRLITYRLRHLLRARCDASPVTNNTIQFHCDPSFWAQNIINLGSLVIEDKESQPQMPKQNPVVEQNSQPPSGLSSNQLSKFPTQISLAQLRLQHMQQQVMAQRQQVQRRPAPVGLPNPRMQGPIQQPSISHQQPPPRLINFQNHSPKPNGPVLPPHPQQLRYPPNQNIPRQAIKPNPLQMAFLAQQAIKQWQISSGQGTPSTTNSTSSTPSSPTITSAAGYDGKAFGSPMIDLSSPVGGSYNLPSLPDIDCSSTIMLDNIVRKDTNIDHGQPRPPSNRTVQSPNSSVPSPGLAGPVTMTSVHPPIRSPSASSVGSRGSSGSSSKPAGADSTHKVPVVMLEPIRIKQENSGPPENYDFPVVIVKQESDEESRPQNANYPRSILTSLLLNSSQSSTSEETVLRSDAPDSTGDQPGLHQDNSSNGKSEWLDPSQKSPLHVGETRKEDDPNEDWCAVCQNGGELLCCEKCPKVFHLSCHVPTLTNFPSGEWICTFCRDLSKPEVEYDCDAPSHNSEKKKTEGLVKLTPIDKRKCERLLLFLYCHEMSLAFQDPVPLTVPDYYKIIKNPMDLSTIKKRLQEDYSMYSKPEDFVADFRLIFQNCAEFNEPDSEVANAGIKLENYFEELLKNLYPEKRFPKPEFRNESEDNKFSDDSDDDFVQPRKKRLKSIEERQLLK”, “not failed”; with “MEVDEDIELQKHQEQQSRKLQRFSEDNTGLMRNWNNPSSRIIRVSRASGGKDRHSKVLTSKGLRDRRIRLSVATAIQFYDLQDRLGFDQPSKAVEWLINAASDSITDLPLLNTNFDHLDQNQNQTKSACSSGTSESSLLSLSRTEIRGKARERARERTAKDRDKDLQNAHSSFTQLLTGGFDQQPSNRNWTGGSDCFNPVQLQIPNSSSQEPMNHPFSFVPDYNFGISSSSSAINGGYSSRGTLQSNSQSLFLNNNNNITQRSSISSSSSSSSPMDSQSISFFMATPPPLDHHNHQLPETFDGRLYLYYGEGNRSSDDKAKERR”, “failed”.
For “MEVDLSGFNIDAPRWDQCTFLGRVKHFFNITDPRTVFVSEQELDWAKSVVEKSRMGLMPPGTQVEQLLYAKKLYDSAFHPDTGEKMNVIGRMSFQVPGGMIITGFMLQFYRTMPAVVFWQWVNQSFNALVNYTNRNAVSPTSVR”, the protein production entry was “failed”.

(Values after a protein production outcome set (Wang et al. 2014).)
